Here are results for two proteins from paper PMC9025568, “Identification and Characterization of Two Bibenzyl Glycosyltransferases from the Liverwort Marchantia polymorpha” (Antioxidants, 2022).

Common to all, as to assay: HPLC glucosylation assay, nonlinear fit (GraphPad Prism)
Holding throughout (format): biochemical, Marchantia polymorpha

Substrate in data set [1]: Oc1ccc(CCc2cccc(O)c2)cc1
The note with it: UDP-glucose as donor; Tris-HCl, optimal pH (7.0), optimal temperature (25-30 °C), 12 min. The source says:
HPLC glucosylation assay, nonlinear fit (GraphPad Prism) on MpUGT741A1

Substrate in data set [2]: O=C(CCc1ccc(O)cc1)c1c(O)cc(O)cc1O
The conditions noted are these: UDP-glucose as donor, Tris-HCl, optimal pH (7.0-7.5), 30 °C, 12 min. The source says: (§1) HPLC glucosylation assay, nonlinear fit (GraphPad Prism) on MpUGT737B1

Substrate in data set [3]: Oc1ccc(CCc2cc(O)cc(O)c2)cc1
The note with it: UDP-glucose as donor, Tris-HCl, optimal pH (7.0-7.5), 30 °C, 12 min.
Description: as §1

Substrate in data set [4]: Oc1ccc(CCc2cccc(O)c2)cc1
The conditions noted are these: UDP-glucose as donor, Tris-HCl, optimal pH (7.0-7.5), 30 °C, 12 min.
Description: as §1

B1: MpUGT741A1 (Marchantia polymorpha) (protein)
chain: MGSHVERPPRALLFPVVASGHWGPFLQLILQLATKKLNFTLLADRGRCDELKAYQAKGAFATLDVEFLEVYTDPSTLSLRKDLVPAMWTNLESFISNGEFDPSRYTCMISDMFLYFCQDLADKWGIPNYFYVTCPTYFGLVLLHGEGIVDGGWIPQNPVKRKQFLDLPGLEMFTGGDMPMALTEMEPDLFHLLPRAIKGSAGLVFNSFEEFEKKPLSDLRDQLKLNAMPGKGPPTVFTIGPLLLLPGIPGALDDTKPVEKSESIAWLDKQQKSSVLFICFGSQRELPEPLITGIASGLEDTGVPFLWALRIPPQSSKIESLPEGFESRTQSRGLVLTSWVPQQEILLHPSVGGFLTHCGWNSILESMLGGVPIAAFPLYAEQRMNQRYMVNAVKTAVAIEGEHGQYEAKEIAAAIMRLLKGKEGVEARQNMQIMKEMAYAAMEEGGSSHKNLQNFLAEVQRVR
notes: full-length ORF (1392 bp, 463 residues) in pET32a(+), N-terminal Trx-S-His tag, E. coli BL21(DE3), purified
Consider B1, for which, in data set [1], the Km (as a rule, the concentration of substrate that gives half-maximal velocity) is 89.2 ± 17.6 µM; the maximal velocity (Vmax) (usually the top rate of the reaction or transport when substrate is in excess) was determined as 0.15 µmol/min/mg; the kcat (in general, the maximal rate divided by the concentration of active sites) stood at 0.124 ± 0.012 s⁻¹; the kcat/Km (commonly the second-order rate constant that governs catalysis at low substrate concentration) worked out at 1500 M⁻¹ s⁻¹.

B2: MpUGT737B1 (Marchantia polymorpha) (protein)
chain: MELTNGTTRRAHVLMVCVPFPGHVAPFTQLLYHLSCHENLKVTVMGHKARNAEMIKLYEKGEFKGLDIHFETIFADPPVYPSDPKFPIRAALCADQMFVEFEPIRRRLVAEKDNVGAPTSIICDMFLWFTKDAADEMGVPWYPFFSTSQWFGYCAYIGDELARRNFHPHHSEEKDQRIDITGLEFAYVHDIPSEVLEFPEFYAKVTDRSFRATGILCNTAYELEGSAGTLMATKALVQRSGKKNLKGEEAQIIPVGPIAQIPGFGVQYSLRDQPYECLKWLNAHTEKSVLYIAFGSLGNIVPEVFHELALGLEAGGVPFLWALKLTPAQKEELLPEGFLERIQSSGMGFIESGWAPQTQILMHPAVGGFLSHCGWNSTLESLCAGVPMITWPLSADQPMNARFLVDVKKVAVTVLSGSADESVVTHDDISKAIKRLFGDEEGKQIAKNSLELKKLLASLVAEGGSTYKALRYFIQDLVMV
notes: full-length ORF (1443 bp, 480 residues) in pET32a(+), N-terminal Trx-S-His tag, E. coli BL21(DE3), purified
B2: in data set [2], the Km turned out to be 50.2 ± 10.6 µM, the Vmax was 0.07 µmol/min/mg, the kcat is 0.062 ± 0.005 s⁻¹ and the kcat/Km turned out to be 1240 M⁻¹ s⁻¹. Also, in data set [3], the Km is 45.6 ± 9.7 µM, the Vmax was determined as 0.1 µmol/min/mg, the kcat turned out to be 0.089 ± 0.006 s⁻¹ and the kcat/Km worked out at 1960 M⁻¹ s⁻¹. In data set [4], the Km stood at 39.3 ± 7.5 µM, the Vmax was determined as 0.0373 µmol/min/mg, the kcat worked out at 0.033 ± 0.002 s⁻¹ and the kcat/Km came out at 846 M⁻¹ s⁻¹.
